Measurements: patent US20200397896A1, “Combination Therapies Comprising Daratumumab, Bortezomib, Thalidomide and Dexamethasone and Their Uses” (Janssen Biotech, Inc., priority 2019, published 2020)

What was measured:
[1] = system: anti-daratumumab antibodies; assay: Immunogenicity in clinical trials; assay type: in vivo, human
Source text: As with all therapeutic proteins, there is the potential for immunogenicity. The detection of antibody formation is highly dependent on the sensitivity and specificity of the assay. Additionally, the observed incidence of antibody (including neutralizing antibody) positivity in an assay may be influenced by several factors including assay methodology, sample handling, timing of sample collection, concomitant medications, and underlying disease. For these reasons, comparison of the incidence of antibodies to daratumumab in the studies described below with the incidence of antibodies in other studies or to other products may be misleading. […] One patient administered DARZALEX as combination therapy, developed transient neutralizing antibodies against daratumumab. However, this assay has limitations in detecting anti-daratumumab antibodies in the presence of high concentrations of daratumumab; therefore, the incidence of antibody development might not have been reliably determined.

[2] = human, in vivo
[3] = system: adult patients with relapsed and refractory multiple myeloma; assay: DARZALEX monotherapy safety, three open-label clinical trials
Source text: (§2) The median duration of exposure was 3.3 months (range: 0.03 to 20.04 months).

[4] = system: patients with multiple myeloma; assay: Clinical trials pooled (monotherapy and combination treatments; N=2,066), safety
[5] = system: patients with relapsed or refractory multiple myeloma who had received at least 3 prior lines of therapy; assay: SIRIUS open-label trial, DARZALEX monotherapy efficacy; assay type: in vivo, human
Source text: (§1) Treatment continued until unacceptable toxicity or disease progression.

[6] = DARZALEX solution pH and storage of diluted solution; assay type: physicochemical
Source text: Prepare the solution for infusion using aseptic technique as follows: • Calculate the dose (mg), total volume (mL) of DARZALEX solution required and the number of DARZALEX vials needed based on patient actual body weight. • Check that the DARZALEX solution is colorless to pale yellow. […] Infusion bags/containers must be made of either polyvinylchloride (PVC), polypropylene (PP), polyethylene (PE) or polyolefin blend (PP+PE). Dilute under appropriate aseptic conditions. Discard any unused portion left in the vial. • Gently invert the bag/container to mix the solution. […] The diluted solution may develop very small, translucent to white proteinaceous particles, as daratumumab is a protein. […] (59° F.-77° F.) and in room light. Diluted solution may be kept at room temperature for a maximum of 15 hours (including infusion time). • If not used immediately, the diluted solution can be stored prior to administration for up to 24 hours at refrigerated conditions 2° C.-8° C. (36° F.-46° F.) and protected from light.
DARZALEX is supplied as a colorless to pale yellow preservative-free solution for intravenous infusion in single-dose vials. The pH is 5.5.

[7] = system: adult patients with relapsed and refractory multiple myeloma; settings: human, in vivo
Source text: as §2

[8] = system: patients with multiple myeloma; settings: human, in vivo
[9] = system: patients with newly diagnosed multiple myeloma eligible for ASCT; settings: in vivo
Source text: Safety evaluations will include adverse event monitoring, physical examinations, electrocardiogram monitoring (ECGs), clinical laboratory parameters (hematology and chemistry), vital sign measurements, and Eastern Cooperative Oncology Group (ECOG) performance status.
In general, adverse events that occurred during the induction/consolidation and maintenance stages will be summarized separately. Treatment-emergent adverse events for each stage will be defined as events that occur or worsen after administration of the first dose of during that stage and through 30 days after the last dose of study drug in that stage and before the next phase of treatment begins.
Melphalan 200 mg/m^2 was pre-ASCT high-dose therapy.

[10] = Clinical pharmacokinetics of daratumumab; settings: 1 to 24 mg/kg monotherapy or 1 to 16 mg/kg combination therapy
[11] = system: patients with relapsed or refractory multiple myeloma who had received at least 2 different cytoreductive therapies; assay: GEN501 open-label dose escalation trial, DARZALEX monotherapy efficacy; assay type: in vivo, human
Source text: as §1

[12] = monotherapy 16 mg/kg, N = 156, treatment-emergent laboratory abnormality

**Q.** What does the source list for “DARZALEX: IgG1κ human monoclonal antibody against CD38; HC SEQ ID NO: 9, LC SEQ ID NO: 10”?
**A.** patients positive for anti-daratumumab antibodies ([1]; 111 evaluable monotherapy patients): none; patients positive for anti-daratumumab antibodies ([1]; 1,050 evaluable combination therapy patients): 2; patients who developed transient neutralizing antibodies against daratumumab ([1]; combination therapy): One; linear clearance, mean±SD [2]: 171.4 ± 95.3 mL/day; terminal half-life associated with linear clearance, mean±SD [2]: 18 ± 9 days; time to steady state into the every 4-week dosing period [2]: approximately 5 months; trough serum concentration (Cmin) at the end of weekly dosing, mean±SD [2]: 573 ± 332 µg/mL; volume of distribution [2]: 4.7 ± 1.3 L; Serious adverse reaction: general physical health deterioration ([3]; monotherapy): 3%; Serious adverse reaction: pneumonia ([3]; monotherapy): 6%; Serious adverse reaction: pyrexia ([3]; monotherapy): 3%; discontinuations due to adverse reactions ([3]; monotherapy): 4%; treatment delay due to adverse reactions ([3]; monotherapy): 15%; Arthralgia, Any Grade ([3]; monotherapy 16 mg/kg, N = 156): 17%; Arthralgia, Grade 3 ([3]; monotherapy 16 mg/kg, N = 156): 0%; Arthralgia, Grade 4 ([3]; monotherapy 16 mg/kg, N = 156): 0%; Back pain, Any Grade ([3]; monotherapy 16 mg/kg, N = 156): 23%; Back pain, Grade 3 ([3]; monotherapy 16 mg/kg, N = 156): 2%; Back pain, Grade 4 ([3]; monotherapy 16 mg/kg, N = 156): 0%; Chills, Any Grade ([3]; monotherapy 16 mg/kg, N = 156): 10%; Chills, Grade 3 ([3]; monotherapy 16 mg/kg, N = 156): 0%; Chills, Grade 4 ([3]; monotherapy 16 mg/kg, N = 156): 0%; Constipation, Any Grade ([3]; monotherapy 16 mg/kg, N = 156): 15%; Constipation, Grade 3 ([3]; monotherapy 16 mg/kg, N = 156): 0%; Constipation, Grade 4 ([3]; monotherapy 16 mg/kg, N = 156): 0%; Cough, Any Grade ([3]; monotherapy 16 mg/kg, N = 156): 21%; Cough, Grade 3 ([3]; monotherapy 16 mg/kg, N = 156): 0%; Cough, Grade 4 ([3]; monotherapy 16 mg/kg, N = 156): 0%; Decreased appetite, Any Grade ([3]; monotherapy 16 mg/kg, N = 156): 15%; Decreased appetite, Grade 3 ([3]; monotherapy 16 mg/kg, N = 156): 1%; Decreased appetite, Grade 4 ([3]; monotherapy 16 mg/kg, N = 156): 0%; Diarrhea, Any Grade ([3]; monotherapy 16 mg/kg, N = 156): 16%; Diarrhea, Grade 3 ([3]; monotherapy 16 mg/kg, N = 156): 1%; Diarrhea, Grade 4 ([3]; monotherapy 16 mg/kg, N = 156): 0%; Dyspnea, Any Grade ([3]; monotherapy 16 mg/kg, N = 156): 15%; Dyspnea, Grade 3 ([3]; monotherapy 16 mg/kg, N = 156): 1%; Dyspnea, Grade 4 ([3]; monotherapy 16 mg/kg, N = 156): 0%; Fatigue, Any Grade ([3]; monotherapy 16 mg/kg, N = 156): 39%; Fatigue, Grade 3 ([3]; monotherapy 16 mg/kg, N = 156): 2%; Fatigue, Grade 4 ([3]; monotherapy 16 mg/kg, N = 156): 0%; Headache, Any Grade ([3]; monotherapy 16 mg/kg, N = 156): 12%; Headache, Grade 3 ([3]; monotherapy 16 mg/kg, N = 156): 1%; Headache, Grade 4 ([3]; monotherapy 16 mg/kg, N = 156): 0%; Hypertension, Any Grade ([3]; monotherapy 16 mg/kg, N = 156): 10%; Hypertension, Grade 3 ([3]; monotherapy 16 mg/kg, N = 156): 5%; Hypertension, Grade 4 ([3]; monotherapy 16 mg/kg, N = 156): 0%; Infusion reaction, Any Grade ([3]; monotherapy 16 mg/kg, N = 156): 48%; Infusion reaction, Grade 3 ([3]; monotherapy 16 mg/kg, N = 156): 3%; Infusion reaction, Grade 4 ([3]; monotherapy 16 mg/kg, N = 156): 0%; Musculoskeletal chest pain, Any Grade ([3]; monotherapy 16 mg/kg, N = 156): 12%; Musculoskeletal chest pain, Grade 3 ([3]; monotherapy 16 mg/kg, N = 156): 1%; Musculoskeletal chest pain, Grade 4 ([3]; monotherapy 16 mg/kg, N = 156): 0%; Nasal congestion, Any Grade ([3]; monotherapy 16 mg/kg, N = 156): 17%; Nasal congestion, Grade 3 ([3]; monotherapy 16 mg/kg, N = 156): 0%; Nasal congestion, Grade 4 ([3]; monotherapy 16 mg/kg, N = 156): 0%; Nasopharyngitis, Any Grade ([3]; monotherapy 16 mg/kg, N = 156): 15%; Nasopharyngitis, Grade 3 ([3]; monotherapy 16 mg/kg, N = 156): 0%; Nasopharyngitis, Grade 4 ([3]; monotherapy 16 mg/kg, N = 156): 0%; Nausea, Any Grade ([3]; monotherapy 16 mg/kg, N = 156): 27%; Nausea, Grade 3 ([3]; monotherapy 16 mg/kg, N = 156): 0%; Nausea, Grade 4 ([3]; monotherapy 16 mg/kg, N = 156): 0%; Pain in extremity, Any Grade ([3]; monotherapy 16 mg/kg, N = 156): 15%; Pain in extremity, Grade 3 ([3]; monotherapy 16 mg/kg, N = 156): 1%; Pain in extremity, Grade 4 ([3]; monotherapy 16 mg/kg, N = 156): 0%; Pneumonia, Any Grade ([3]; monotherapy 16 mg/kg, N = 156): 11%; Pneumonia, Grade 3 ([3]; monotherapy 16 mg/kg, N = 156): 6%; Pneumonia, Grade 4 ([3]; monotherapy 16 mg/kg, N = 156): 0%; Pyrexia, Any Grade ([3]; monotherapy 16 mg/kg, N = 156): 21%; Pyrexia, Grade 3 ([3]; monotherapy 16 mg/kg, N = 156): 1%; Pyrexia, Grade 4 ([3]; monotherapy 16 mg/kg, N = 156): 0%; Vomiting, Any Grade ([3]; monotherapy 16 mg/kg, N = 156): 14%; Vomiting, Grade 3 ([3]; monotherapy 16 mg/kg, N = 156): 0%; Vomiting, Grade 4 ([3]; monotherapy 16 mg/kg, N = 156): 0%; Anemia, Any Grade [3, 12]: 45%; Anemia, Grade 3 [3, 12]: 19%; Anemia, Grade 4 [3, 12]: 0%; Lymphopenia, Any Grade [3, 12]: 72%; Lymphopenia, Grade 3 [3, 12]: 30%; Lymphopenia, Grade 4 [3, 12]: 10%; Neutropenia, Any Grade [3, 12]: 60%; Neutropenia, Grade 3 [3, 12]: 17%; Neutropenia, Grade 4 [3, 12]: 3%; Thrombocytopenia, Any Grade [3, 12]: 48%; Thrombocytopenia, Grade 3 [3, 12]: 10%; Thrombocytopenia, Grade 4 [3, 12]: 8%; Serious adverse reactions, patients ([3]; monotherapy, 156 patients): 33%; Grade 3/4 infusion reaction at Week 2 or subsequent infusions ([4]; N=2,066): Less than 1%; incidence of any grade infusion reactions, Week 2 infusion ([4]; N=2,066): 2%; incidence of any grade infusion reactions, first (16 mg/kg, Week 1) infusion ([4]; N=2,066): 37%; incidence of any grade infusion reactions, subsequent infusions (cumulatively) ([4]; N=2,066): 6%; incidence of infusion modification due to reactions ([4]; N=2,066): 36%; patients who experienced an infusion reaction ([4]; clinical trials, all patients): approximately half; persistence of positive indirect antiglobulin test after the last infusion ([4]; human, in vivo): up to 6 months; median duration of response [5]: 7.4 months; median time to response [5]: 1 month; Overall response rate (ORR) ([5]; N = 106): (29.2%); Partial response (PR) ([5]; N = 106): (17.0%); Stringent complete response (sCR) ([5]; N = 106): (2.8%); Very good partial response (VGPR) ([5]; N = 106): (9.4%); storage time of diluted solution at refrigerated conditions ([6]; 2° C.-8° C., protected from light): up to 24 hours; storage time of diluted solution at room temperature (including infusion time) ([6]; 15° C.-25° C., room light, diluted in 0.9% Sodium Chloride): ≤ 15 h; pH of solution ([6]; single-dose vial solution): 5.5; herpes zoster [7]: 3%; Hepatitis B virus reactivation [8]: less than 1%; IRRs Grade 3 or 4 at re-initiation following ASCT [9]: < 1%; incidence of IRRs, first infusion following ASCT [9]: 11%; area under the concentration-time curve (AUC) versus dose [10]: increases more than proportionally; CR, number of patients ([11]; GEN501): 1; VGPR, number of patients ([11]; GEN501): 3; median duration of response ([11]; GEN501): not estimable; median time to response ([11]; GEN501): 1 month; Overall response rate ([11]; GEN501, 42 patients, 16 mg/kg): 36%
